The target of assay [1] is human FcγRIIB receptor (on transfected Expi293F cells) (human) (UniProt P31994). The experiment in a line: flow cytometry on cells; Expi293F cells transiently transfected with a human Fcγ receptor, 48 h after transfection; 1 to 10000 ng/ml test antibody, 1.5 h at 4 °C; R-phycoerythrin anti-human IgG secondary antibody; EC50 by nonlinear regression of mean fluorescence.
The target in assay [2] is human FcγRIIA receptor, Arg131 allotype (on transfected Expi293F cells) (human). The description is as above.
Sequence of human FcγRIIA receptor, Arg131 allotype (on transfected Expi293F cells) (human) (P12318 other isoform, or with tags, fused parts or gaps): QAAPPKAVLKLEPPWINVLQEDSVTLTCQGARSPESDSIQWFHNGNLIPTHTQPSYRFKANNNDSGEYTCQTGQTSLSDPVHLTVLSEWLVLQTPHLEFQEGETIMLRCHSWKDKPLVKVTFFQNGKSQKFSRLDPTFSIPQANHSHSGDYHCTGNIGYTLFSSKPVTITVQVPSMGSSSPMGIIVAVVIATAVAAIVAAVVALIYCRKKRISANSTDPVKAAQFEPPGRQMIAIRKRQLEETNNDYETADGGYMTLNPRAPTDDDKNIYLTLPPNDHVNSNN
In assay [3] the target is FcγRIIB on Raji cells (human (endogenous in Raji)) (UniProt P31994).
Assay [4] addresses OX40SF2IgG1E345R/E430G/S440Y (human). The experiment in a line: SEC-MALS; purified antibody in solution; monomeric peak and a ∼900 kDa peak.

B1: OX40SF2IgG1S267E/L328F (antibody, V domains shown)
VH: QVQLVQSGAEVKKPGSSVKVSCKASGYTFKDYTMHWVRQAPGQGLEWIGGIYPNNGGSTYNQNFKDRVTLTADKSTSTAYMELSSLRSEDTAVYYCARMGYHGPHLDFDVWGQGTTVTVSS
VL: DIQMTQSPSSLSASVGDRVTITCKASQDVGAAVAWYQQKPGKAPKLLIYWASTRHTGVPSRFSGSGSGTDFTLTISSLQPEDFATYYCQQYINYPLTFGGGTKVEIK
For the molecule B1, the EC50 in assay [1] worked out at 3.1 nM. In addition, in assay [2], the EC50 is 1.5 nM and the fold more potent EC50 than OX40SF2IgG1 was found to be 20 fold. Also, in assay [3], the agonism in the HEK-Blue NF-κB reporter assay, HEK-Blue:OX40 cells co-cultured with Raji cells, 10 to 1000 ng/ml antibody; decreased when Raji cells were pre-blocked with 5 μg/ml 2B6 was more than 2 fold.

B2: OX40SF2IgG1E345R/E430G/S440Y (antibody, V domains shown)
VH: QVQLVQSGAEVKKPGSSVKVSCKASGYTFKDYTMHWVRQAPGQGLEWIGGIYPNNGGSTYNQNFKDRVTLTADKSTSTAYMELSSLRSEDTAVYYCARMGYHGPHLDFDVWGQGTTVTVSS
VL: DIQMTQSPSSLSASVGDRVTITCKASQDVGAAVAWYQQKPGKAPKLLIYWASTRHTGVPSRFSGSGSGTDFTLTISSLQPEDFATYYCQQYINYPLTFGGGTKVEIK
B2 had a stoichiometry N in assay [4] of 6.

The values above are taken from publication PMC5207143.
